# The Immune Epitope Database (IEDB)
# Columns and labels:
# HLA-A*02:06 = test: IEDB peptide-MHC binding, purified MHC/competitive/radioactivity; filed as Kd, often an IC50 or EC50 that approximates it; ≥ and ≤ were set here for values at or beyond the usual limits of such assays
# HLA-A*02:02 = test: as above
# HLA-A*02:03 = test: as above
# HLA-A*02:01 [1] = test: IEDB peptide-MHC binding, purified MHC/competitive/fluorescence; ≥ and ≤ were set here for values at or beyond the usual limits of such assays
# HLA-B*51:01 = test: IEDB peptide-MHC binding, purified MHC/competitive/radioactivity; filed as Kd, often an IC50 or EC50 that approximates it; ≥ and ≤ were set here for values at or beyond the usual limits of such assays
# HLA-A*30:02 = test: as above; settings: source organism: Dengue virus 1 Brazil/97-11/1997
# HLA-B*53:01 = test: as above
# HLA-B*15:01 = test: IEDB peptide-MHC binding, purified MHC/direct/fluorescence; filed as Kd, often an IC50 or EC50 that approximates it; ≥ and ≤ were set here for values at or beyond the usual limits of such assays
# HLA-A*26:01 = test: IEDB peptide-MHC binding, purified MHC/competitive/radioactivity; filed as Kd, often an IC50 or EC50 that approximates it; ≥ and ≤ were set here for values at or beyond the usual limits of such assays; settings: source organism: Dengue virus 2 Jamaica/1409/1983
# HLA-A*69:01 = test: IEDB peptide-MHC binding, purified MHC/direct/fluorescence; filed as Kd, often an IC50 or EC50 that approximates it; ≥ and ≤ were set here for values at or beyond the usual limits of such assays; settings: source organism: Salmonella enterica subsp. enterica serovar Typhimurium
# HLA-A*02:01 [2] = test: as above; settings: source organism: Salmonella enterica subsp. enterica serovar Typhimurium
# [3] = source organism: Mammarenavirus juninense
# [4] = source organism: Vaccinia virus WR
# [5] = source organism: Dengue virus 4 Philippines/H241/1956
# [6] = source organism: Mammarenavirus guanaritoense
# [7] = source organism: SARS coronavirus Tor2
# [8] = source organism: Dengue virus 2 Jamaica/1409/1983
# [9] = source organism: Dengue virus 3 Martinique/1243/1999
# [10] = source organism: Sudan ebolavirus
# [11] = source organism: Lassa virus Josiah
sequence,measurement,setting,value
KSGLFQFFV,Kd,HLA-A*02:06; [3],8.06 nM
same,Kd,HLA-A*02:02; [3],23.1 nM
same,Kd,HLA-A*02:03; [3],1550 nM
KTSQVPKLL,IC50,HLA-A*02:01 [1]; source organism: Variola virus,23500 nM
KVYNGIFVDT,Kd,HLA-A*02:06; [4],16400 nM
same,Kd,HLA-A*02:02; [4],111 nM
same,Kd,HLA-A*02:03; [4],1440 nM
LALTDVEKRI,Kd,HLA-A*02:06; [4],2410 nM
same,Kd,HLA-A*02:02; [4],199 nM
same,Kd,HLA-A*02:03; [4],403 nM
LAMGCYSQV,Kd,HLA-B*51:01; [5],140 nM
LAYYNSCML,Kd,HLA-A*02:06; [4],≥ 21500 nM
same,Kd,HLA-A*02:02; [4],12800 nM
same,Kd,HLA-A*02:03; [4],15500 nM
LCFWSAIFFT,Kd,HLA-A*02:06; [6],≥ 34500 nM
same,Kd,HLA-A*02:02; [6],2600 nM
same,Kd,HLA-A*02:03; [6],≥ 30300 nM
LHPASAWTLY,Kd,HLA-A*30:02,53.7 nM
LLFLVLIML,Kd,HLA-A*02:06; [7],573 nM
same,Kd,HLA-A*02:02; [7],154 nM
same,Kd,HLA-A*02:03; [7],1370 nM
LPETLETLL,Kd,HLA-B*53:01; [8],918 nM
LPVWLAHKV,Kd,HLA-B*51:01; [9],126 nM
same,Kd,HLA-B*53:01; [9],831 nM
LQKGGVIVY,Kd,HLA-B*15:01; source organism: Haemophilus influenzae,478 nM
LTPKAQREI,IC50,HLA-A*02:01 [1]; source organism: Variola virus,≥ 71400 nM
LVCKDHLAS,IC50,HLA-A*02:01 [1]; [10],≥ 185000 nM
MISRMLINRF,Kd,HLA-A*26:01,8330 nM
MLSEGRMNS,IC50,HLA-A*02:01 [1]; source organism: Vaccinia virus,6520 nM
MLTNAISSRV,Kd,HLA-A*02:06; [4],224 nM
same,Kd,HLA-A*02:02; [4],53 nM
same,Kd,HLA-A*02:03; [4],0.105 nM
MLWCKDGHV,Kd,HLA-A*02:06; [7],362 nM
same,Kd,HLA-A*02:02; [7],10.3 nM
same,Kd,HLA-A*02:03; [7],11 nM
MMLAQAYYG,Kd,HLA-A*69:01,3190 nM
same,Kd,HLA-B*15:01; source organism: Salmonella enterica subsp. enterica serovar Typhimurium,5780 nM
same,Kd,HLA-A*02:01 [2],273 nM
MMQNDYGGM,Kd,HLA-A*02:06; [4],1660 nM
same,Kd,HLA-A*02:02; [4],1080 nM
same,Kd,HLA-A*02:03; [4],2740 nM
MPLVMAWRT,Kd,HLA-B*51:01; [5],693 nM
same,Kd,HLA-B*53:01; [5],88.4 nM
MSFRDLGRVM,Kd,HLA-B*51:01; [8],≥ 38300 nM
MSIQLINKAV,Kd,HLA-A*02:06; [11],619 nM
same,Kd,HLA-A*02:02; [11],11300 nM
same,Kd,HLA-A*02:03; [11],1790 nM
NAVTTNNLL,Kd,HLA-A*02:06; [4],202 nM
same,Kd,HLA-A*02:02; [4],1850 nM
same,Kd,HLA-A*02:03; [4],≥ 24900 nM
NGLITSTVT,IC50,HLA-A*02:01 [1]; [10],≥ 118000 nM
